From paper PMC7670456

Tests used:
[1] = anti-FLAG IP, anti-phospho-threonine blot, HEK293, EGF; conditions: glycan gained; control: no OGT overexpression
[2] = immunoblot of endogenous SMAD4, A549; conditions: control: mock / control siRNA / DMSO / 5 mM glucose
[3] = denaturing anti-FLAG IP, HA-Ub blot, HEK293, MG132; conditions: glycan lost; control: FLAG-SMAD4 WT
[4] = CHX chase, immunoblot, A549

B1: SMAD4: OGT overexpression (protein)
parent chain: MDNMSITNTPTSNDACLSIVHSLMCHRQGGESETFAKRAIESLVKKLKEKKDELDSLITAITTNGAHPSKCVTIQRTLDGRLQVAGRKGFPHVIYARLWRWPDLHKNELKHVKYCQYAFDLKCDSVCVNPYHYERVVSPGIDLSGLTLQSNAPSSMMVKDEYVHDFEGQPSLSTEGHSIQTIQHPPSNRASTETYSTPALLAPSESNATSTANFPNIPVASTSQPASILGGSHSEGLLQIASGPQPGQQQNGFTGQPATYHHNSTTTWTGSRTAPYTPNLPHHQNGHLQHHPPMPPHPGHYWPVHNELAFQPPISNHPAPEYWCSIAYFEMDVQVGETFKVPSSCPIVTVDGYVDPSGGDRFCLGQLSNVHRTEAIERARLHIGKGVQLECKGEGDVWVRCLSDHAVFVQSYYLDREAGRAPGDAVHKIYPSAYIKVFDLRQCHRQMQQQAATAQAAAAAQAAAVAGNIPGPGSVGGIAPAISLSAAAGIGVDDLRRLCILRMSFVKGWGPDYPRQSIKETPCWIEIHLHRALQLLDEVLHTMPIADPQPLD
other: threonine phosphorylation [1]: decreases | expression_or_secretion ([2]; glycan gained): increases

B2: SMAD4: QM (protein)
parent chain: MDNMSITNTPTSNDACLSIVHSLMCHRQGGESETFAKRAIESLVKKLKEKKDELDSLITAITTNGAHPSKCVTIQRTLDGRLQVAGRKGFPHVIYARLWRWPDLHKNELKHVKYCQYAFDLKCDSVCVNPYHYERVVSPGIDLSGLTLQSNAPSSMMVKDEYVHDFEGQPSLSTEGHSIQTIQHPPSNRASTETYSTPALLAPSESNATSTANFPNIPVASTSQPASILGGSHSEGLLQIASGPQPGQQQNGFTGQPATYHHNSTTTWTGSRTAPYTPNLPHHQNGHLQHHPPMPPHPGHYWPVHNELAFQPPISNHPAPEYWCSIAYFEMDVQVGETFKVPSSCPIVTVDGYVDPSGGDRFCLGQLSNVHRTEAIERARLHIGKGVQLECKGEGDVWVRCLSDHAVFVQSYYLDREAGRAPGDAVHKIYPSAYIKVFDLRQCHRQMQQQAATAQAAAAAQAAAVAGNIPGPGSVGGIAPAISLSAAAGIGVDDLRRLCILRMSFVKGWGPDYPRQSIKETPCWIEIHLHRALQLLDEVLHTMPIADPQPLD
other: polyubiquitination [3]: increases

B3: SMAD4: OSMI-1 (protein)
parent chain: MDNMSITNTPTSNDACLSIVHSLMCHRQGGESETFAKRAIESLVKKLKEKKDELDSLITAITTNGAHPSKCVTIQRTLDGRLQVAGRKGFPHVIYARLWRWPDLHKNELKHVKYCQYAFDLKCDSVCVNPYHYERVVSPGIDLSGLTLQSNAPSSMMVKDEYVHDFEGQPSLSTEGHSIQTIQHPPSNRASTETYSTPALLAPSESNATSTANFPNIPVASTSQPASILGGSHSEGLLQIASGPQPGQQQNGFTGQPATYHHNSTTTWTGSRTAPYTPNLPHHQNGHLQHHPPMPPHPGHYWPVHNELAFQPPISNHPAPEYWCSIAYFEMDVQVGETFKVPSSCPIVTVDGYVDPSGGDRFCLGQLSNVHRTEAIERARLHIGKGVQLECKGEGDVWVRCLSDHAVFVQSYYLDREAGRAPGDAVHKIYPSAYIKVFDLRQCHRQMQQQAATAQAAAAAQAAAVAGNIPGPGSVGGIAPAISLSAAAGIGVDDLRRLCILRMSFVKGWGPDYPRQSIKETPCWIEIHLHRALQLLDEVLHTMPIADPQPLD
expression_or_secretion ([2]; glycan lost): decreases

B4: SMAD4: thiamet-G (protein)
parent chain: MDNMSITNTPTSNDACLSIVHSLMCHRQGGESETFAKRAIESLVKKLKEKKDELDSLITAITTNGAHPSKCVTIQRTLDGRLQVAGRKGFPHVIYARLWRWPDLHKNELKHVKYCQYAFDLKCDSVCVNPYHYERVVSPGIDLSGLTLQSNAPSSMMVKDEYVHDFEGQPSLSTEGHSIQTIQHPPSNRASTETYSTPALLAPSESNATSTANFPNIPVASTSQPASILGGSHSEGLLQIASGPQPGQQQNGFTGQPATYHHNSTTTWTGSRTAPYTPNLPHHQNGHLQHHPPMPPHPGHYWPVHNELAFQPPISNHPAPEYWCSIAYFEMDVQVGETFKVPSSCPIVTVDGYVDPSGGDRFCLGQLSNVHRTEAIERARLHIGKGVQLECKGEGDVWVRCLSDHAVFVQSYYLDREAGRAPGDAVHKIYPSAYIKVFDLRQCHRQMQQQAATAQAAAAAQAAAVAGNIPGPGSVGGIAPAISLSAAAGIGVDDLRRLCILRMSFVKGWGPDYPRQSIKETPCWIEIHLHRALQLLDEVLHTMPIADPQPLD
expression_or_secretion ([2]; glycan gained): increases | degradation_or_half_life ([4]; glycan gained, control: untreated (endogenous SMAD4)): increases

B5: SMAD4: T63V (protein)
parent chain: MDNMSITNTPTSNDACLSIVHSLMCHRQGGESETFAKRAIESLVKKLKEKKDELDSLITAITTNGAHPSKCVTIQRTLDGRLQVAGRKGFPHVIYARLWRWPDLHKNELKHVKYCQYAFDLKCDSVCVNPYHYERVVSPGIDLSGLTLQSNAPSSMMVKDEYVHDFEGQPSLSTEGHSIQTIQHPPSNRASTETYSTPALLAPSESNATSTANFPNIPVASTSQPASILGGSHSEGLLQIASGPQPGQQQNGFTGQPATYHHNSTTTWTGSRTAPYTPNLPHHQNGHLQHHPPMPPHPGHYWPVHNELAFQPPISNHPAPEYWCSIAYFEMDVQVGETFKVPSSCPIVTVDGYVDPSGGDRFCLGQLSNVHRTEAIERARLHIGKGVQLECKGEGDVWVRCLSDHAVFVQSYYLDREAGRAPGDAVHKIYPSAYIKVFDLRQCHRQMQQQAATAQAAAAAQAAAVAGNIPGPGSVGGIAPAISLSAAAGIGVDDLRRLCILRMSFVKGWGPDYPRQSIKETPCWIEIHLHRALQLLDEVLHTMPIADPQPLD
other: polyubiquitination [3]: increases | degradation_or_half_life ([4]; glycan lost, control: FLAG-SMAD4 WT): decreases
